Starred links: 1 amine or outer side, 2 acyl side, 3 side chain; linkers in the order of their positions; H or OH if unused. Positions of bridges follow the written chain, without caps; N, C: chain ends. Non-standard residues stand in square brackets, D forms with d. Primed or numbered codes have the meaning given here. PyrS2″ = (S)-3-amino-1-((pent-4-en-1-yloxy)carbonyl)pyrrolidine-3-carboxylic acid (stapling residue), C=CCCCOC(=O)N1CC[C@@](N[*:1])(C(=O)[*:2])C1; B5(4) = 2,2-bis(4-pentenyl)glycine = 2-amino-2-(pent-4-en-1-yl)hept-6-enoic acid (stitching residue), C=CCCCC(CCCC=C)(N[*:1])C(=O)[*:2]; B5(6) = 2-amino-2-(pent-4-en-1-yl)hept-6-enoic acid (bis(4-pentenyl)glycine), stitching residue, C=CCCCC(CCCC=C)(N[*:1])C(=O)[*:2]; B5 = 2-amino-2-(pent-4-en-1-yl)hept-6-enoic acid, C=CCCCC(CCCC=C)(N[*:1])C(=O)[*:2]; Phe(3-OMe) = COc1cccc(C[C@H](N)C(=O)O)c1; Phe(2-Cl) = N[C@@H](Cc1ccccc1Cl)C(=O)O; Bta = N[C@@H](Cc1csc2ccccc12)C(=O)O; αAllylPro = C=CC[C@@]1(C(=O)O)CCCN1; S8 = C=CCCCCCC[C@](C)(N)C(=O)O
Assays:
[1] = target: T1, full-length beta-Catenin (Uniprot ID P35222) (Homo sapiens (Human), UniProt P35222 1-781); assay: fluorescence polarization competition; 10 nM full-length beta-catenin + 10 nM 5FAM-TCF4(10-53) probe
T1 construct: also called bCat; B-Catenin
T1 sequence: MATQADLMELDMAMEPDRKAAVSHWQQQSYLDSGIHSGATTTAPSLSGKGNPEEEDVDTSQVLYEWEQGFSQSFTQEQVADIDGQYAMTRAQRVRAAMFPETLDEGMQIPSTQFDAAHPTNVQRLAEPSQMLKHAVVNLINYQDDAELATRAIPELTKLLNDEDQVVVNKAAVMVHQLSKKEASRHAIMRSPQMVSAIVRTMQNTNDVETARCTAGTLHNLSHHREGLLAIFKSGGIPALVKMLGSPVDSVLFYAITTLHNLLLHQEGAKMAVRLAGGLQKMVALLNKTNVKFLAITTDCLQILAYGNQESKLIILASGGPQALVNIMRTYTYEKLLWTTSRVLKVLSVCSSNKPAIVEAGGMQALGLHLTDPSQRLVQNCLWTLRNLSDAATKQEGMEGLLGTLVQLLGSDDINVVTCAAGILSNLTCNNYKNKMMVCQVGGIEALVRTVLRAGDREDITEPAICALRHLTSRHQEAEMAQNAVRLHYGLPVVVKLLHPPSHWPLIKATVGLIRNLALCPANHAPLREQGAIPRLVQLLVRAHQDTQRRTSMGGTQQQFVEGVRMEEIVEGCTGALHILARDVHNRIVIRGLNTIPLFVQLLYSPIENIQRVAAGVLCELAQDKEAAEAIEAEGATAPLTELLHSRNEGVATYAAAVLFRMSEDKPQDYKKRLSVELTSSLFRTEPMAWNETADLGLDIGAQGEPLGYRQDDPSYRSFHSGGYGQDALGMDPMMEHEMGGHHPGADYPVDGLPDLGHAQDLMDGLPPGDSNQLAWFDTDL
Protocol: (§1) The plate was incubated protected from light for 60 minutes at 20° C. prior to read. Reads were performed on a CLARIOstar plate reader (BMG Labtech) in duplicate, and data were fitted to a 1:1 binding model with hill slope using an in-house script. All provided concentrations are final concentrations.

[2] = target: T2, B-cat-Halo (beta-catenin HaloTag NanoBRET construct expressed in HEK293 cells) (UniProt P35222 1-781); assay: NanoBRET target engagement in HEK293 cells (B-cat-Halo / TCF4-Luc); competitor TCF4-Luc
T2 construct: Transfected together with TCF4-Luc into HEK293 cells; not shown: HaloTag
T2 sequence (looked up): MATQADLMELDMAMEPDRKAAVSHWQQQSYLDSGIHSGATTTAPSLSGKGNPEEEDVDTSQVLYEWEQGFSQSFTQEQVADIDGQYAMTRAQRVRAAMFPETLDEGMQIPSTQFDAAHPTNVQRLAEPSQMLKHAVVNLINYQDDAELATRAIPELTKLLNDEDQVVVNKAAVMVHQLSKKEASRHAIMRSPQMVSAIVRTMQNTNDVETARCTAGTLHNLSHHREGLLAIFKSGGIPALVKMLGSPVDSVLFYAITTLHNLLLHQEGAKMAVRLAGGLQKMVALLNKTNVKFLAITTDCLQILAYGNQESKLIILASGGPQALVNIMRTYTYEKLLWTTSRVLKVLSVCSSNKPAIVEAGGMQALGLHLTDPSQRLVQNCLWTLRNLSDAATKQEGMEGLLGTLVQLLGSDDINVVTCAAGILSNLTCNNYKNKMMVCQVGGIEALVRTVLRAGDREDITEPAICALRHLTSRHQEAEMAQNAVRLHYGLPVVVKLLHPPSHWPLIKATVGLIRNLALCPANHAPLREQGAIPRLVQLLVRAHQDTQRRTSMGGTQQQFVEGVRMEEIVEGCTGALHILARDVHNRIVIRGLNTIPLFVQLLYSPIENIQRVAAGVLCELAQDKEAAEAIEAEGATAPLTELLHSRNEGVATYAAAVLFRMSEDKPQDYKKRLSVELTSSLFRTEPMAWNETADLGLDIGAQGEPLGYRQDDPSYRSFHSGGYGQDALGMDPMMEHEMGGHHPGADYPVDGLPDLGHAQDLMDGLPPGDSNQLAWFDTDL

[3] = target: T3, beta-catenin in DLD1 TCF/LEF luciferase reporter cells (Homo sapiens (Human), UniProt P35222 1-781); assay: cell-based or functional assay
T3 sequence: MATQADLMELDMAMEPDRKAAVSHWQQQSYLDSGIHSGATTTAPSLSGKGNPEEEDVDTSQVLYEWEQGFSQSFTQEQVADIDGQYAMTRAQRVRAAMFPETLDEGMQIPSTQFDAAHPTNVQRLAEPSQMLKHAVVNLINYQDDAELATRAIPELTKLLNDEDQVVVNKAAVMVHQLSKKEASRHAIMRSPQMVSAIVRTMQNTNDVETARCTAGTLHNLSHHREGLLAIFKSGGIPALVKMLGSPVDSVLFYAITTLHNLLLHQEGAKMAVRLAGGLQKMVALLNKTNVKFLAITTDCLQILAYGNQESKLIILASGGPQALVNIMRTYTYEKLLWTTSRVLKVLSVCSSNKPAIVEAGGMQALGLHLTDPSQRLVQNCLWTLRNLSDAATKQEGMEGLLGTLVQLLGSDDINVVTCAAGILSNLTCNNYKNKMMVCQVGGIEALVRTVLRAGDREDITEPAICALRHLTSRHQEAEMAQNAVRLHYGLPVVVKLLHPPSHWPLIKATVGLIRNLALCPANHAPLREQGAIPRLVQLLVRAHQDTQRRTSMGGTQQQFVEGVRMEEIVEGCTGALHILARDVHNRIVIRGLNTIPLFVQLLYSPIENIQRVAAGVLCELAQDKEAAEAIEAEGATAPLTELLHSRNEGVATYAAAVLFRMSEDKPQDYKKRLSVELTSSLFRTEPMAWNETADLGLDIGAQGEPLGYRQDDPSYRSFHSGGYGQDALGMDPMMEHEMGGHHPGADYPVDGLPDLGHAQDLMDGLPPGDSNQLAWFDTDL

[4] = target: T2, B-cat-Halo (beta-catenin HaloTag …); assay: NanoBRET target engagement in HEK293 cells (B-cat-Halo / TCF4-Luc); absolute IC50; competitor TCF4-Luc
[5] = target: T4, full-length beta-Catenin (Uniprot ID P35222) (Homo sapiens (Human), UniProt P35222 2-781); assay: fluorescence polarization competition; full-length beta-catenin, competitor 5FAM-TCF4(10-53) probe
T4 construct: also called bCat; B-Catenin
T4 sequence: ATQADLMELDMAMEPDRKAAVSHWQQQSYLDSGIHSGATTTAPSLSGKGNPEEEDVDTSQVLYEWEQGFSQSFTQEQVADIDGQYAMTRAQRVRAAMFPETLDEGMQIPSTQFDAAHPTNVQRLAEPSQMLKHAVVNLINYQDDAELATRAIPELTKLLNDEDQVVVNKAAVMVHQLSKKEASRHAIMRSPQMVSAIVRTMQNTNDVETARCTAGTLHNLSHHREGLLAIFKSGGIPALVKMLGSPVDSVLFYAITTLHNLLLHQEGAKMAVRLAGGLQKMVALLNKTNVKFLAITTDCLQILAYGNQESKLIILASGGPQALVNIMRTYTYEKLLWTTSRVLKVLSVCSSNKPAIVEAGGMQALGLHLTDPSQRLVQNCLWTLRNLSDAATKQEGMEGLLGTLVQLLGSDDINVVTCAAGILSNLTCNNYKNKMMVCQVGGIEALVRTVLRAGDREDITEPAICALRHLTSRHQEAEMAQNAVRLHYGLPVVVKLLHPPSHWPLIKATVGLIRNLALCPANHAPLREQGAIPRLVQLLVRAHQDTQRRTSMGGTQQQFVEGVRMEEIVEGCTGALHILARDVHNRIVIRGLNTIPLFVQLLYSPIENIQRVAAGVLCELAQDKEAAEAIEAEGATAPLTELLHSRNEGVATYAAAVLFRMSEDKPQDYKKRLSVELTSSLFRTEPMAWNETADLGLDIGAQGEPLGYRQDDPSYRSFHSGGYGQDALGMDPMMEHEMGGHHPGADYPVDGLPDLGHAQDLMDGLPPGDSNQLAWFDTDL
Outline: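 Data fitted to 1:1 binding model with hill slope from duplicate reads taken after 60 minutes at 20° C. in the dark.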

[6] = target: T5, full-length beta-Catenin (Uniprot ID P35222) (Homo sapiens (Human), UniProt P35222 1-781); assay: fluorescence polarization competition; full-length beta-catenin with 5FAM-labeled TCF4 residues 10-53 probe as competitor
T5 construct: also called bCat; B-Catenin
T5 sequence: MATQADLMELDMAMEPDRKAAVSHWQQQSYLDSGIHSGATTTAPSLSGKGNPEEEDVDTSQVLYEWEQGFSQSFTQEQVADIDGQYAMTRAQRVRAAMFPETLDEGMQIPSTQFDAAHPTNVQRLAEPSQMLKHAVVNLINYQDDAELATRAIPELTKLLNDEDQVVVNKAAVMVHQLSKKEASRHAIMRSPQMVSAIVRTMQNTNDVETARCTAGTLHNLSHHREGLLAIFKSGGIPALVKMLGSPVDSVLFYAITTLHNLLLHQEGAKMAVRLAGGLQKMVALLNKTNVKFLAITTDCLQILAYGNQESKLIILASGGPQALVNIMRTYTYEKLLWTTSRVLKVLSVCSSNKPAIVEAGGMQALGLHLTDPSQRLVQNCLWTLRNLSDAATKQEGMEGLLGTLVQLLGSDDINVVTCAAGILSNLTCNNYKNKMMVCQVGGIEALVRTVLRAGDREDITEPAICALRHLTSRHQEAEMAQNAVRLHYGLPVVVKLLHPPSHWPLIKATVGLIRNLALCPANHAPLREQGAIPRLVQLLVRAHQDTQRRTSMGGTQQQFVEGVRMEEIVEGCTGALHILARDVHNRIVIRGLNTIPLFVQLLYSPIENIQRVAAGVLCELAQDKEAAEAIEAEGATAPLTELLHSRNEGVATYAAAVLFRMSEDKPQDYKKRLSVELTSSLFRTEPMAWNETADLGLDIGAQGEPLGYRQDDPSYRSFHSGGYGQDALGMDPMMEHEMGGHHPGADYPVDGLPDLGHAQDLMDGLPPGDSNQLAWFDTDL
Protocol: as §1

B1: I-505 (peptide)
peptide: Ac-[αAllylPro]DL[B5(6)]DEAAFQ[S8]F[Bta]Q-NH2
modifications: staple 1-4, 4-11
notes: Stapled peptide composition; also called Ac-PL3-Asp-Leu-B5-Asp-Glu-Ala-Ala-Phe-Gln-S8-Phe-BztA-Gln-NH2
- EC50 [1]: 23 nM
- IC50 [2]: 5600 nM
- DLD1 reporter assay Abs IC50 [3]: 10800 nM
- NanoBRET Abs IC50 [4]: 4900 nM

Binder: Ac-[αAllylPro]DF[B5(4)]DDLLFT[PyrS2″][Phe(2-Cl)][Bta]S-NH2 (staple 1-4, 4-11, '2C1F' is printed for 2ClF) [I-1158]
- IC50 [5]: 168 nM

Binder: Ac-[αAllylPro]DI[B5]DEAA[Phe(3-OMe)]Q[S8]F[Bta]Q-NH2 (staple 1-4, 4-11, Stapled peptide composition) [I-724]
- EC50 [6]: 114 nM
